± gives the standard deviation.
Assay: protein stability index of a GFP-peptide fusion (GPS, HEK-293T) (PSI 1-6); higher = more stable
Details: c terminus: a fixed tail appended
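Also: 24-mer peptide tiles fused after GFP, lentivirally expressed, FACS-sorted into six equal bins by GFP/DsRed ratio, decoded by Illumina sequencing, PSI is the read-weighted mean bin number.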

Sequence TNEWEKRLSTSPVRLAARQEDAPM [EPB41L3] has a protein stability index (treatment: DMSO) of 4.83 ± 0.16 and a protein stability index (treatment: MLN4924 1 uM, 8 h) of 4.51 ± 0.44.
TNHGYRVQVENPERFSSAPCLLGS [TRIM35] gave a protein stability index (treatment: DMSO) of 3.4 ± 0.17 and a protein stability index (treatment: MLN4924 1 uM, 8 h) of 3.29 ± 0.31.
For TPIPWLSSGEPVDYNVDIGIPLDG [MYOZ1], the protein stability index (treatment: DMSO) was 3.98 ± 0.19 and the protein stability index (treatment: MLN4924 1 uM, 8 h) was 4.07 ± 0.2.
For TPLQQVSIEEILEEQRVEQQTKLE [LSM1], the protein stability index (treatment: DMSO) was 5.37 ± 0.17 and the protein stability index (treatment: MLN4924 1 uM, 8 h) was 5.34 ± 0.29.
Sequence TPSPADAKAPPTACYAGAAPAPSQ [CEBPB] has a protein stability index (treatment: DMSO) of 4.75 ± 0.38 and a protein stability index (treatment: MLN4924 1 uM, 8 h) of 4.75 ± 0.27.
TRFILSKVPSEAPSPMPTHRSYLG [SLC6A17] showed a protein stability index (treatment: DMSO) of 2.73 ± 0.31 and a protein stability index (treatment: MLN4924 1 uM, 8 h) of 2.64 ± 0.26.
Work on TRLSRLQEKEELRELNDRLAVYID [LMNB1] yielded a protein stability index (treatment: DMSO) of 3.42 ± 0.25 and a protein stability index (treatment: MLN4924 1 uM, 8 h) of 3.5 ± 0.28.
In the case of TRQLHEKTSQLSYYYMGFYIHSCP [ATE1], the protein stability index (treatment: DMSO) is reported as 2.83 ± 0.71 and the protein stability index (treatment: MLN4924 1 uM, 8 h) is reported as 2.54 ± 0.41.
Work on TRVLAEMREQYEAMAERNRRDAEE [KRT13] yielded a protein stability index (treatment: DMSO) of 5.26 ± 0.2 and a protein stability index (treatment: MLN4924 1 uM, 8 h) of 5.18 ± 0.28.
Work on TSSLFRTEPMAWNETADLGLDIGA [CTNNB1] yielded a protein stability index (treatment: DMSO) of 3.71 ± 0.24 and a protein stability index (treatment: MLN4924 1 uM, 8 h) of 3.82 ± 0.59.
TTVPEVEPPQDSHSRKTVLIKTIE [PRPH] showed a protein stability index (treatment: DMSO) of 4.58 ± 0.3 and a protein stability index (treatment: MLN4924 1 uM, 8 h) of 4.6 ± 0.38.
TVHEVDIFRCFCPVFLHSQMLWEL [DENND6A] showed a protein stability index (treatment: DMSO) of 2.89 ± 0.61 and a protein stability index (treatment: MLN4924 1 uM, 8 h) of 3.33 ± 0.49.
Sequence TVPDEFTVEERQTGMWWRHLVAGG [SLC25A25] has a protein stability index (treatment: DMSO) of 2.77 ± 0.19 and a protein stability index (treatment: MLN4924 1 uM, 8 h) of 3 ± 0.14.
Work on TWRDPQDEVPGSQGSQASQAPPVP [NR2F2] yielded a protein stability index (treatment: DMSO) of 5.18 ± 0.19 and a protein stability index (treatment: MLN4924 1 uM, 8 h) of 5.16 ± 0.23.
For TWVTVKNGSGDMIFEGNSEKEIPV [CPXM2], the protein stability index (treatment: DMSO) was 4 ± 0.2 and the protein stability index (treatment: MLN4924 1 uM, 8 h) was 3.9 ± 0.081.
Work on TYNLTEVDKYVNSFVLKNFPALLS [KLHL13] yielded a protein stability index (treatment: DMSO) of 2.08 ± 0.26 and a protein stability index (treatment: MLN4924 1 uM, 8 h) of 2.28 ± 0.23.
For VAEETPDGAPALCPSPEALSPEPP [PRKX], the protein stability index (treatment: DMSO) was 5.48 ± 0.21 and the protein stability index (treatment: MLN4924 1 uM, 8 h) was 5.41 ± 0.31.
In the case of VAFLEQRASALLASCSKNCTNSPA [FBXO34], the protein stability index (treatment: DMSO) is reported as 2.9 ± 0.25 and the protein stability index (treatment: MLN4924 1 uM, 8 h) is reported as 2.76 ± 0.28.
For VAITILQDDHDHKVQELMSTHELE [MTUS2], the protein stability index (treatment: DMSO) was 3.3 ± 0.3 and the protein stability index (treatment: MLN4924 1 uM, 8 h) was 3.43 ± 0.23.
For VAPQDQCKLTCQAQALGYYYVLEP [ADAMTS4], the protein stability index (treatment: DMSO) was 2.58 ± 0.22 and the protein stability index (treatment: MLN4924 1 uM, 8 h) was 2.4 ± 0.04.
Work on VASEMRFVQDLVRALEQEKLQGVE [DAPK3] yielded a protein stability index (treatment: DMSO) of 4.42 ± 0.44 and a protein stability index (treatment: MLN4924 1 uM, 8 h) of 4.73 ± 0.37.
VASGSTPAPALCCAPYDSRLLGSA [IRX6] showed a protein stability index (treatment: DMSO) of 2.64 ± 0.21 and a protein stability index (treatment: MLN4924 1 uM, 8 h) of 2.99 ± 0.13.
Sequence VASVGNSRPTGQQLESLGLLAPGE [KISS1] has a protein stability index (treatment: DMSO) of 4.44 ± 0.17 and a protein stability index (treatment: MLN4924 1 uM, 8 h) of 4.52 ± 0.3.
With VAVLLLFLVVREPPRGAVERHSDL [SPNS1] the protein stability index (treatment: DMSO) was 3.02 ± 0.64 and the protein stability index (treatment: MLN4924 1 uM, 8 h) was 2.99 ± 0.53.
In the case of VCCCELGVNPDQVEKIRKLPNTLL [ANKRD40], the protein stability index (treatment: DMSO) is reported as 2.26 ± 0.36 and the protein stability index (treatment: MLN4924 1 uM, 8 h) is reported as 2.82 ± 0.32.
With VCVFLSHGEGNHIYAYDAKIEIQT [CASP6] the protein stability index (treatment: DMSO) was 3.11 ± 0.26 and the protein stability index (treatment: MLN4924 1 uM, 8 h) was 2.75 ± 0.64.
Work on VEALQLSARWLEVLRTYLELVLCV [FBXO33] yielded a protein stability index (treatment: DMSO) of 2.58 ± 0.35 and a protein stability index (treatment: MLN4924 1 uM, 8 h) of 2.46 ± 0.73.
In the case of VEDLVDSLKLALLFYILTFVGAIF [RTN2], the protein stability index (treatment: DMSO) is reported as 2.8 ± 0.35 and the protein stability index (treatment: MLN4924 1 uM, 8 h) is reported as 2.48 ± 0.55.
Sequence VEPPGPGDTVVQGDLQETTVVTGL [PBXIP1] has a protein stability index (treatment: DMSO) of 5.31 ± 0.4 and a protein stability index (treatment: MLN4924 1 uM, 8 h) of 5.15 ± 0.46.
In the case of VESFKTKVSYLKQKGLGGAMVWAL [CHIT1], the protein stability index (treatment: DMSO) is reported as 2.54 ± 0.49 and the protein stability index (treatment: MLN4924 1 uM, 8 h) is reported as 2.7 ± 0.56.
VFIISTLAIDFIDEGRLLLEFDLL [SOAT2] gave a protein stability index (treatment: DMSO) of 3.23 ± 0.31 and a protein stability index (treatment: MLN4924 1 uM, 8 h) of 3.03 ± 0.36.
Sequence VFPETAFIAVTSYQNHKITQLKIE [TBX5] has a protein stability index (treatment: DMSO) of 2.22 ± 0.35 and a protein stability index (treatment: MLN4924 1 uM, 8 h) of 2.21 ± 0.32.
VGGTIRTCQKFLIQYNRRQLLILL [POP5] gave a protein stability index (treatment: DMSO) of 2.96 ± 0.47 and a protein stability index (treatment: MLN4924 1 uM, 8 h) of 2.64 ± 0.67.
Work on VGLIRNLALCPANHAPLREQGAIP [CTNNB1] yielded a protein stability index (treatment: DMSO) of 3.21 ± 0.24 and a protein stability index (treatment: MLN4924 1 uM, 8 h) of 3.32 ± 0.32.
Work on VGVMLPHNTTEAPGPHSAKQDSYE [ZC2HC1C] yielded a protein stability index (treatment: DMSO) of 5.03 ± 0.27 and a protein stability index (treatment: MLN4924 1 uM, 8 h) of 5.215 ± 0.033.
With VIESFTELSRIVLMRHGMEKIWRP [RAB40C] the protein stability index (treatment: DMSO) was 3.11 ± 1 and the protein stability index (treatment: MLN4924 1 uM, 8 h) was 2.6 ± 0.59.
VKGMQRIVNQWSEKFSDEGDSDSA [DLC1] gave a protein stability index (treatment: DMSO) of 4.68 ± 0.21 and a protein stability index (treatment: MLN4924 1 uM, 8 h) of 5.09 ± 0.29.
With VKKNSAKSMGLKKKAFVWARNIGF [ACSBG2] the protein stability index (treatment: DMSO) was 2.03 ± 0.12 and the protein stability index (treatment: MLN4924 1 uM, 8 h) was 2.24 ± 0.22.
Sequence VKVLAGQEYAAKIINTKKLSARDH [CAMK2A] has a protein stability index (treatment: DMSO) of 3.15 ± 0.34 and a protein stability index (treatment: MLN4924 1 uM, 8 h) of 3.33 ± 0.11.
In the case of VKWMVVFAIGVCTGLVGLFVDFFV [CLCN6], the protein stability index (treatment: DMSO) is reported as 2.16 ± 0.31 and the protein stability index (treatment: MLN4924 1 uM, 8 h) is reported as 2.42 ± 0.46.
For VLERGDSAPATAKENAAAPSPVRA [PALM], the protein stability index (treatment: DMSO) was 5.3 ± 0.23 and the protein stability index (treatment: MLN4924 1 uM, 8 h) was 5.24 ± 0.078.
VLGADGVCMTFMKQIAGGDVTAKN [INTS3] gave a protein stability index (treatment: DMSO) of 3.51 ± 0.26 and a protein stability index (treatment: MLN4924 1 uM, 8 h) of 3.6 ± 0.42.
Sequence VLSHIMFDGPEAWGVCEPQREEVE [ZER1] has a protein stability index (treatment: DMSO) of 3.63 ± 0.17 and a protein stability index (treatment: MLN4924 1 uM, 8 h) of 3.49 ± 0.28.
VLSREQSRRSYDDQLRSGSPPKSP [DNAJC4] gave a protein stability index (treatment: DMSO) of 5.29 ± 0.26 and a protein stability index (treatment: MLN4924 1 uM, 8 h) of 5.45 ± 0.12.
VLTKKFQVTMRGLLSCLSKSNNRL [FBXO39] gave a protein stability index (treatment: DMSO) of 3.16 ± 0.51 and a protein stability index (treatment: MLN4924 1 uM, 8 h) of 3.24 ± 1.2.

Source: the supplement of paper PMC10567573
